Measurements taken from PMC5805349, “Recombinant expression, purification and biochemical characterization of kievitone hydratase from Nectria haematococca” (PLoS ONE, 2018).

Assays:
FsKHS = molecular target: T1, FsKHS (Fusarium phaseoli, UniProt Q00870); experiment: HPLC conversion assay with P. pastoris culture supernatant; type: biochemical; conditions: 2 mM kievitone, 35°C, culture supernatant of P. pastoris expressing FsKHS, mere turnover
T1 construct: gene khs; 19-residue signal peptide cleaved between Ala19 and Ser20; C-terminal His10 tag
T1 sequence (Q00870 20-350): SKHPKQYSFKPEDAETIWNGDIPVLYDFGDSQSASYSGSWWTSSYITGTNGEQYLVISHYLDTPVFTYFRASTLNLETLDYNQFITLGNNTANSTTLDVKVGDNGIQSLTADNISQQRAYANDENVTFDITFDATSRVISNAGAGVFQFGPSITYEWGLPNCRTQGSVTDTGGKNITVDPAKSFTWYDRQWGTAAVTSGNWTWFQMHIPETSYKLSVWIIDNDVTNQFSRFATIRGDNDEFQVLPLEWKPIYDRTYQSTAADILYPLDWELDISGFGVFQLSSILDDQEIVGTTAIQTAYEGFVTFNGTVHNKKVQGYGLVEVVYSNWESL

[1] = tested on: COc1cc(O)c(CC=C(C)C)c(O)c1C(=O)/C=C/c1ccc(O)cc1; experiment: purified protein; conditions: 50 mM sodium citrate, pH 6.0, 35°C, 2% v/v ethanol, 0.05 mg/mL enzyme, apparent because of low XN solubility, water is co-substrate

Compound	% substrate converted in 3 h (FsKHS)	Km [1] [µM]	kcat [1] [s⁻¹]
CC(C)=CCc1c(O)cc(O)c2c1OCC(c1ccc(O)cc1O)C2=O (stereo not drawn) [KV, kievitone]	~ 89%	–	–
NhKHS (Fusarium vanettenii 77-13-4)	–	980 ± 130	4.77 ± 0.33
